This is an account of results in publication PMC7762940.

The assay addresses TubY C-terminal domain (BcYCΔ; residues 107-182) of pBc10987 from Bacillus cereus (Bacillus cereus (plasmid pBc10987)). In words: crystal structure; Se-substituted BcYCΔ at 1.4 mM in 10 mM Tris pH 8.0, 0.1 M NaCl, 3 mM DTT; sitting drop, 20 °C, 0.1 M HEPES pH 7.5, 0.2 M MgCl2, 30% PEG400; 2.6 Å; four monomers in the asymmetric unit.

Regarding “TubY C-terminal domain (BcYCΔ; residues 107-182) of pBc10987 from Bacillus cereus (domain or fragment)”, the stoichiometry N is 4.

By stoichiometry N is commonly meant the number of molecules, sites or subunits per partner or assembly.
